Assay results from the supplement of paper PMC12764529.
± gives the half width of the 95% confidence interval.

assay: folding stability dG unfold from trypsin proteolysis; higher = more stable
Experimental: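 Folding stability of de novo designed mini-proteins (<80 aa, no Cys; designed by TrROS, TrMRF, ProteinMPNN and the joint model) was measured by cDNA display proteolysis with trypsin and chymotrypsin. Each protease was used at 11 concentrations in a threefold dilution series plus a no-protease condition. K50 was inferred by Bayesian fitting of sequencing counts, and dG unfold was derived against a sequence-predicted unfolded-state K50 (Tsuboyama et al. method). Sequences shown include variable-length N-terminal GS-type padding (SAGGSAGG...) inside a display construct carrying a PA tag. Rows were kept only if the AF2 dimer inter-PAE was >15, to exclude likely homo-oligomers.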

Row | Sequence | folding stability dG unfold [kcal/mol]
1 | SAGGSAGGSAGGSMPYVVVVKYPDGSTVTFPPGEDINVKVSPDKKGVEVVSVVPLSELLSAGGSAGGSAGGS [r4_122_JUSTAS] | 0.179 ± 0.054
2 | SAGGSAGGSAGGSGSSIPIVVEEKPEVSEDPSRVVLTTKIILKDPNGNSIETITEVELKSAGGSAGGSAGGS [r4_75_JUSTAS] | -0.492 ± 0.066
3 | SAGGNYYPMEFRNPENNHEIRITVERDPPGMYRINIQIENPNGNQIPFPMTMPPDDFKPGDEFEIKIPSAGG [r13_959_TrROS] | 0.676 ± 0.16
4 | SAGGQTIEIPNGITITYYPNNQVTITIRYPGRPLTVTSPYDSPEEAIDNIIEQAREMARPPPPKKKDDSAGG [r13_896_TrROS] | 0.633 ± 0.16
5 | SAGGSAGGSAGMPPGSIKVTVTSTAPDGTPSTTESTIPPSQVDKVKAEAAAKGWTVSFTGSAGGSAGGSAGG [r11_603_JUSTAS] | 0.654 ± 0.034
6 | SAGGSAGGSENNIVIKMKMEMPNQEMKFRFPIPADKLKDALKEGKPIKFPNGMNVRITEIIPVSAGGSAGGS [r12_432_TrROS] | -0.864 ± 0.81
7 | SAGGSAGGSAGGSPLIVEFKGDELRNTIPSGFEVLSEERDPELGYVRAALRALGSGETLSAGGSAGGSAGGS [r4_435_TrMRF] | -0.707 ± 0.27
8 | SAGGSAGGSAGGTEEEALEKAERLAKELGVDLKDVKILNPPDKFEAVFTIPGTGENIKLSAGGSAGGSAGGS [r10_161_JUSTAS] | -0.505 ± 0.46
9 | SAGGSAGGSAGQPKIGVLKEELIKETYTRPVPDSDETVKEERIVVKIIKKKLNIPENLLLSAGGSAGGSAGG [r17_530_JUSTAS] | -0.447 ± 0.27
10 | SAGGSAGGSAGGMTIKEIMKRFPGGGEIDITEIPGDRITIEMRFPNGNNRRRTIPPDEISAGGSAGGSAGGS [r10_612_TrROS] | -0.04 ± 0.34
11 | SAGSPIDLGEVEVEEKPVETDPATGLTTTETVITAPDGRPVFVKYTTKDPATGTTTVTETPVGVDPELTSAG [r5_200_JUSTAS] | -0.556 ± 0.096
12 | SAGGSAGGSAGGKNMQEVPFPIEIKDPKNGKKIKIPVEVRRNPDDGKYQITPEALEELIKSAGGSAGGSAGG [r7_557_TrROS] | -0.809 ± 0.31
13 | SPLTPEQIEELAKEIAQEFPNVKVKIYPNDEPIEIKAPGAEIEIWPPPGEFYIQIEFPGNGKPKQIPIPPSA [r9_1062_TrROS] | 0.00765 ± 0.051
14 | SAGGSAGGSAGMELAEEVARKGKPGTLVTFTPPGGRVQLATVRGDEVTPSGLSPDYSVTLTSAGGSAGGSAG [r3_244_JUSTAS] | -0.371 ± 0.26
15 | SAGVTVERKPGDGSLTVTVPADDGPLTIEVDLLPNTGTLKATVTYDDGTPATYTFPGGTLEDIIERLHSAGG [r19_159_TrMRF] | -0.0867 ± 0.088
16 | SAGGMTTTVTVEKFPDGSVTEVTTLPNGIVLTTPLPYTKVVPVDPPDGPAVSWGPVTVTSTESVSSEASAGG [r13_236_JUSTAS] | 0.393 ± 0.068
17 | SIERPGGEPVTLTVTVERPPGVRTTRTFTTPASELEARRGRDVTDEEIIAAVKEELAAAGDRALAVTVDRTS [r1_338_JUSTAS] | -0.807 ± 0.68
18 | SAGGSAGGSAGGMLVLIKTPKKPVLLSEEEVKSNPELLEKLKEEGFPIDGIEFLDKEKLSAGGSAGGSAGGS [r10_396_JUSTAS] | -0.185 ± 0.1
19 | SAGGMPEGDFWVRIRIPVPKYEMERDPNDPNDYKMEPEWKPKEIWLPVKSPEALDEFRENGFEIEPFSAGGS [r8_482_TrROS] | 0.251 ± 0.091
20 | SAGGAVTSVSPGNGTTTVTVPISVPGSPVTLNIPTPDATLTPDPSGTVTVTLPPNGTYSITITGPRSDSAGG [r19_227_JUSTAS] | -0.688 ± 0.16

assay: folding stability dG unfold (combined trypsin and chymotrypsin); higher = more stable
Summary of the method: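 Unfolding free energy was derived, per protease or combined, by relating Bayesian-fitted K50 values from sequencing counts to a sequence-predicted unfolded-state K50 and a shared folded-state K50. The underlying digests exposed cysteine-free mini-proteins under 80 residues, in a PA-tagged cDNA display construct, to trypsin and chymotrypsin at 11 threefold-diluted concentrations and to a no-protease condition. A filter kept only designs with AlphaFold2 dimer inter-PAE above 15.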

Row | Sequence | folding stability dG unfold [kcal/mol]
21 | SAGGSAGGSAGGSMPYVVVVKYPDGSTVTFPPGEDINVKVSPDKKGVEVVSVVPLSELLSAGGSAGGSAGGS [r4_122_JUSTAS] | -0.332 ± 0.2
22 | SAGGSAGGSAGGSGSSIPIVVEEKPEVSEDPSRVVLTTKIILKDPNGNSIETITEVELKSAGGSAGGSAGGS [r4_75_JUSTAS] | < -1
23 | SAGGNYYPMEFRNPENNHEIRITVERDPPGMYRINIQIENPNGNQIPFPMTMPPDDFKPGDEFEIKIPSAGG [r13_959_TrROS] | 0.213 ± 0.44
24 | SAGGQTIEIPNGITITYYPNNQVTITIRYPGRPLTVTSPYDSPEEAIDNIIEQAREMARPPPPKKKDDSAGG [r13_896_TrROS] | 0.68 ± 0.41
25 | SAGGSAGGSAGMPPGSIKVTVTSTAPDGTPSTTESTIPPSQVDKVKAEAAAKGWTVSFTGSAGGSAGGSAGG [r11_603_JUSTAS] | 0.245 ± 0.068
26 | SAGGSAGGSENNIVIKMKMEMPNQEMKFRFPIPADKLKDALKEGKPIKFPNGMNVRITEIIPVSAGGSAGGS [r12_432_TrROS] | < -1
27 | SAGGSAGGSAGGSPLIVEFKGDELRNTIPSGFEVLSEERDPELGYVRAALRALGSGETLSAGGSAGGSAGGS [r4_435_TrMRF] | < -1
28 | SAGGSAGGSAGGTEEEALEKAERLAKELGVDLKDVKILNPPDKFEAVFTIPGTGENIKLSAGGSAGGSAGGS [r10_161_JUSTAS] | -0.601 ± 0.97
29 | SAGGSAGGSAGQPKIGVLKEELIKETYTRPVPDSDETVKEERIVVKIIKKKLNIPENLLLSAGGSAGGSAGG [r17_530_JUSTAS] | < -1
30 | SAGGSAGGSAGGMTIKEIMKRFPGGGEIDITEIPGDRITIEMRFPNGNNRRRTIPPDEISAGGSAGGSAGGS [r10_612_TrROS] | -0.582 ± 0.33
31 | SAGSPIDLGEVEVEEKPVETDPATGLTTTETVITAPDGRPVFVKYTTKDPATGTTTVTETPVGVDPELTSAG [r5_200_JUSTAS] | < -1
32 | SAGGSAGGSAGGKNMQEVPFPIEIKDPKNGKKIKIPVEVRRNPDDGKYQITPEALEELIKSAGGSAGGSAGG [r7_557_TrROS] | < -1
33 | SPLTPEQIEELAKEIAQEFPNVKVKIYPNDEPIEIKAPGAEIEIWPPPGEFYIQIEFPGNGKPKQIPIPPSA [r9_1062_TrROS] | -0.583 ± 0.25
34 | SAGGSAGGSAGMELAEEVARKGKPGTLVTFTPPGGRVQLATVRGDEVTPSGLSPDYSVTLTSAGGSAGGSAG [r3_244_JUSTAS] | < -1
35 | SAGVTVERKPGDGSLTVTVPADDGPLTIEVDLLPNTGTLKATVTYDDGTPATYTFPGGTLEDIIERLHSAGG [r19_159_TrMRF] | -0.153 ± 0.22
36 | SAGGMTTTVTVEKFPDGSVTEVTTLPNGIVLTTPLPYTKVVPVDPPDGPAVSWGPVTVTSTESVSSEASAGG [r13_236_JUSTAS] | 0.0898 ± 0.26
37 | SIERPGGEPVTLTVTVERPPGVRTTRTFTTPASELEARRGRDVTDEEIIAAVKEELAAAGDRALAVTVDRTS [r1_338_JUSTAS] | < -1
38 | SAGGSAGGSAGGMLVLIKTPKKPVLLSEEEVKSNPELLEKLKEEGFPIDGIEFLDKEKLSAGGSAGGSAGGS [r10_396_JUSTAS] | -0.451 ± 0.31
39 | SAGGMPEGDFWVRIRIPVPKYEMERDPNDPNDYKMEPEWKPKEIWLPVKSPEALDEFRENGFEIEPFSAGGS [r8_482_TrROS] | -0.137 ± 0.16
40 | SAGGAVTSVSPGNGTTTVTVPISVPGSPVTLNIPTPDATLTPDPSGTVTVTLPPNGTYSITITGPRSDSAGG [r19_227_JUSTAS] | < -1
